According to patent publication US20190032049:

What was measured:
[1] = test system: tetR:DNMT3A (tetR:D3A) (Escherichia coli); experiment: cell_activity; details: no doxycycline, stable expression, slower kinetics
[2] = test system: tetR:KRAB (tetR:K) (Escherichia coli); experiment: cell_activity; details: no doxycycline, stable expression, AAVS1/TetO7 K562

## TetO7 (seven tandem TetO repeats)
[1]
  activity (% eGFP-negative cells): 100
[2]
  activity (% eGFP-negative cells): 100
